Data reported in the nanobody polyreactivity screen of Harvey et al. (2022).

Test: yeast display, Sf9 membrane polyspecificity reagent, FACS + sequencing; frameworks hold sequencing errors
How it was run: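 Sorting gates, low and high (top ~1%), were placed on anti-HA fluorescence to track expression and on streptavidin fluorescence to track reagent binding. A clone's polyreactivity label is taken from the gate it came out of. The reagent was 10% biotinylated, detergent-solubilized Sf9 membrane, applied for 1 hour at 4 °C to galactose-induced yeast display cells.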

Sequence	polyreactivity (PSR sort gate)
QVQLVESGGGLVQAGGSLRLSCAPSGIIFAYYAKGWYRQAPVKERELVASISSGGTTKYADSVKGRFTISRDNAKNTVYLQMNSLKPEDTAVYYCAAEHRWRSWDMDYWGQGTQVTVSS	low polyreactivity
QVQLVESGGGLVQAGGSLRLSCAPSGIIFHKYAMGWYRQAPGTDRELVAVFTGRGGSTYYADSVKGRFTISRDFAKNTVYLQMNSLKPEDTAVYYCAAVTKSWRGATWYDYWGQGTQVTVSS	high polyreactivity
QVQLVESGGGLVQAGGSLRLSCAPSGIIFIRYAMGWYRQAPGKERELVAAISWRGGSTYYADSVKGRFTISRDNAKNTVYLQMNSLKPEDTAVYYCAAGYFSYRRYDYWGQGTQVTVSS	high polyreactivity
QVQLVESGGGLVQAGGSLRLSCAPSGIILAYYAMGWYRQAPGKERELVAAISRSGGITYYADSVKGRFTISRDNAKNTVYLQMNSLKPEDTAVYYCARYSSRPYDYWGQGTQVTVSS	high polyreactivity
QVQLVESGGGLVQAGGSLRLSCAPSGLIFYHYAMGWYRQAPGKERELVAGITRSGGSTYYADSVKGRFTISRDNAKNTVYLQMNSLKPEDTAVYYCAAKSLTTGKYGKYGYWGQGTQVTVSS	high polyreactivity
QVQLVESGGGLVQAGGSLRLSCAPSGLIIWDYVMGWYRQAPGKERELVAAISRSGGRTYYADSVKGRFTISRDNAKNTVYLQMNSLKPEDTAVYYCAARVRFSYASRSGYWGQGTQVTVSS	high polyreactivity
QVQLVESGGGLVQAGGSLRLSCAPSGLTIVTYAMGWYRQAPRKERELVAAISRSGGSTYYADSVKGRFTISRDNAKNTVYLQMNSLKPEDSAVYYCNAYSYVDLWAVYRYDYWGQGTQVTVSS	high polyreactivity
QVQLVESGGGLVQAGGSLRLSCAPSGRIFGHYAMGWYRQATGKERELVAAINWRGGSTYYADSVNGRFTISRDNAKNTVYLQMNSLKPEDTAVYYCAADWTKARDSIYDYWGQGTQVTVSS	low polyreactivity
QVQLVESGGGLVQAGGSLRLSCAPSGRIFGVYAMGWYRQAPGKERELVATIRSSGTRTNYADSVKGRFTISRDNAKNTVYLQMNSLKPEDTAVYYCAAGGRPYKLDFTRSDYWGQGTQVTVSS	low polyreactivity
QVQLVESGGGLVQAGGSLRLSCAPSGRIFKYNAMGWYRQAPGKERELVAAITSSGASTYYADSVKGRFTISRDIAKHTVYLQMNSLKPVVTAVYYCAARARRKYDYWGQGTQVTLSS	high polyreactivity
QVQLVESGGGLVQAGGSLRLSCAPSGRIFRYYAMGWYRPAPGKERELVAAISSRGASTYYADSVKGRYTISRDNAKNTVYLQMNRVKPEDTAVYYCGVRTYVYHWSFSSLPYVYWGQGTQVTVSS	high polyreactivity
QVQLVESGGGLVQAGGSLRLSCAPSGRIIRPYAKGWYIQAPGKERELVAAISVSGVITYYADSVKGRFTISRDNAKNTVYLQMNSLKPEDTAVYYCATDYTRRRWGRLYDYWGQGTQVTVSS	low polyreactivity
QVQLVESGGGLVQAGGSLRLSCAPSGRTFGSNTMGLYRQAPGKEIELVAGITFSSGSTYYADSVKGRFTISRDNANNTVYLQMNSLKPEDTAVYDCAVRNASKNRKYYYWGQGTQVTVSS	high polyreactivity
QVQLVESGGGLVQAGGSLRLSCAPSGRTFSRNAMGWYRQAPGKERELVAAISQRGVSTYYADSVKGSFTISRDNAQNSVYLQMNSLKPEDSAVYYCNTRGTYRYDYWGQGTQGTVSS	low polyreactivity
QVQLVESGGGLVQAGGSLRLSCAPSGRTFVDYDMGWYRQAPGKERELVADINSGGSTYYADSVKGRFTISRDNAKNTVYLQMNSLKPEDTAVYYCAARYTFDRWKFGYWGQGTQVTVSS	high polyreactivity
QVQLVESGGGLVQAGGSLRLSCAPSGRTFWYNAMGWYRQAPGKERELVATITSGGRTSYADSVKGRFTISRDNAKNTVYLQMNSLKPEDTAVYYCAATTGWYGARYGYWGQGTQVTVSS	high polyreactivity
QVQLVESGGGLVQAGGSLRLSCAPSGRTLIHYAMGWSRQAPGKEREFVATINIGGRTYADSVKGRFTISRDNAKTTVYLQMNSLKPEDSAVYYCDADHRYSARRSFPTLYDYWAQGTQVTVSS	low polyreactivity
QVQLVESGGGLVQAGGSLRLSCAPSGSIFAYYAMGWYRPAPGKERELVAAISKSGGRTYYADSVKGRFTISRDNAKNTVYLQMNSLKPEDTAVYYCAADGPGYTYDYWGQGTQVTVSS	high polyreactivity
QVQLVESGGGLVQAGGSLRLSCAPSGSIFGGYAMGWYRQAPGKERELVAGITYSGDSTYYADSVKGRFTISRDNAKYTVYLQMNSLKPEDTAVYYCNADQRVDHDDFDYWGQGTQVTVSS	low polyreactivity
QVQLVESGGGLVQAGGSLRLSCAPSGSIFGVYAMGWYRQAPGKERELVDTISWSAGSTYYADSVKGRFTISRDNAKNTVYLQMNSLKPVDTAVYYCGAGVRWLGLYDLFTFDYWGQGTQVTVSS	low polyreactivity
QVQLVESGGGLVQAGGSLRLSCAPSGSIFWLYDMGWYRPAPGKERELVAAIDSGDSTKYADSVKGRFTISRDNAKNTVYLQMNSLKPEDTAVYYCNASRRYHVRAPYDYWGQGTQVTVSS	low polyreactivity
QVQLVESGGGLVQAGGSLRLSCAPSGSILWLNAMGWYRQAPGKERELVADITRGGSTYYADSVKGRFTISRDNAKNTVYLQMNSLKPEDTAVYYCAAKRGKTYQRFDYWGQGTQVTVSS	high polyreactivity

Sequence	polyreactivity (PSR sort gate)
QVQLVESGGGLVQAGGSLRLSCAPSGSTFRTYAMGWYRQAPGKERELVAAISSGDNTNYADSVKGRFTISRDNAKNTAYLQMNSLKPEDTAVYYCASRAYRWRSFYTMYYCGQGTQVTVSS	high polyreactivity
QVQLVESGGGLVQAGGSLRLSCAPSGSTFRYNAMGWYRQAPGKERELVAAITFSGDSTSYADSVKGRFTISRDNAKNTVYLQMNSLKPEDTAVYYCAVDTWNGDGSGYSLEFEYWGQGTQVTVSS	low polyreactivity
QVQLVESGGGLVQAGGSLRLSCAPSGSTFYKYVMGWYRQAPGKERELVAAISQGGSSTYYADSVKGRFTISRDNAKYTVYVLMNSLKPEDTAVYYCAAQYWWWSRFEYDSWGQGTQVTVSS	low polyreactivity
QVQLVESGGGLVQAGGSLRLSCAPSGTTFTRNAMGWYREAPGKERELVAAISFSGGSTYYADSVKGRFTISRDNAKNTVYIQMNSLKPEDTAVYYCATKVEYRYYYWGQGTQVTVSS	high polyreactivity
QVQLVESGGGLVQAGGSLRLSCAPSGYIFYDNAMGWYRQAPGKEREFVAAITFSGDSTDYADSVKGRFTISRDNAKNTVYLQMNSLKPEDTAVYYFNTVYYRYYIELYFSSYDYWGQGTQVTVSS	high polyreactivity
QVQLVESGGGLVQAGGSLRLSCAPTGFIFFTYAMGWYRQAPGKERELVAAISQSGASTYYADSVKGRFTISRDNAKKTVYLQMNSLKPEDSAVDYCAATYSFRYWIQRYNYWGQGTQVTVSS	low polyreactivity
QVQLVESGGGLVQAGGSLRLSCASSGFIFFSYAMGWYRQAPGKERELVASISRSGGTTYYADSVKGRFTISRDNAKNTVYLQMNSLKPEDTAVYYCAARTYSYYSRDYWGQVTQVTVSS	high polyreactivity
QVQLVESGGGLVQAGGSLRLSCASSGFIFHHYGMGRSRQAPGKERELVAGDTHYADSVKGRFTISRDNAKNTVYLQMNSLKPEDTAVYYCNAYWKDDFEDGPGRRGMDYWGQGTLVTVSS	low polyreactivity
QVQLVESGGGLVQAGGSLRLSCASSGFIFRWYTMGWYRQAPGKERELVAAISWSSGSTSYADSVKGRFTISRDNAKNTVYLQMNSLKPEDTAVYYCAAVWRTASTQYYYWGQGTQVTVSS	high polyreactivity
QVQLVESGGGLVQAGGSLRLSCASSGFIFRYYAMGWYRQAPGKERELVAAISWRGDSTSYADSVKGRFTISRDNAKYTVYLQMNSLKPEDTAVYYCAAGRYLAYLYWGRYEYYYWGQGTQVTVSS	low polyreactivity
QVQLVESGGGLVQAGGSLRLSCASSGFIFVNYAMEWYRQAPGKERELVAAISRNGGRTYYADSVKGRFTISRDNAKNTVYFQMNSLKPEDTAVYYCTAELSGKRDYWGQGTQVTVSS	high polyreactivity
QVQLVESGGGLVQAGGSLRLSCASSGFILDYNAMGWYRQAPGKERQLVATITGRGDRTYYADSVKGRFTISRDNAKNTVYLQMNSLKPEDTAVYYCAAGFDGSSHPGFDSWGQGTQVTVSS	low polyreactivity
QVQLVESGGGLVQAGGSLRLSCASSGFTFDPYAMGWYRQAPGKERELVAAISWSGGSTYYADSVKGRFTISRDNAKNTVYLQMNSLKPEDTAVYYCAAEWYNSAYYEYDYWGQGTQVTVSS	high polyreactivity
QVQLVESGGGLVQAGGSLRLSCASSGFTFSDYAMAWYRQAPGKERELVADISTSGGSTYYADSVKGRFTISRDNAKNTVYLQMNSLKPEDTAVYYCAVRPGYYWGYWPRFGYWGQGTQVTVSS	low polyreactivity
QVQLVESGGGLVQAGGSLRLSCASSGFTFWYTMGWYRQAPGKEREFVAAITSGGGRTYYADSVKGRFTISRDNAKNTVYLQMNSLKPEETAVYYSAADSYYSWYDYWVQGTQVTVSS	high polyreactivity
QVQLVESGGGLVQAGGSLRLSCASSGHIFIGNAMGWYRQAPGKERELVAAISRGGGRTYYADSVKGRFTISRDNAKNTVFLQMNILKPEDTAVYYCATVGQGPTKTPAGRYDYWGQGTQVTVSS	high polyreactivity
QVQLVESGGGLVQAGGSLRLSCASSGIIFGGNAMGWYRQAPGKERELVATISNGGSTKYADSVKGRFTISRDNAKNTVYLQMNSLKPEDTAVYYCAAQPRVGSYVRSSRGRYNHWGQGTQVTVSS	high polyreactivity
QVQLVESGGGLVQAGGSLRLSCASSGITFGYYAMGWYRQAPGKESELGAARSGSGGSTYYADSVKGRFTISRDNAKNTVSLQMNSLKPEDTAVYDCAAEGPSNTLYWFSWEDYWGQGTQVTVSS	high polyreactivity
QVQLVESGGGLVQAGGSLRLSCASSGITFNLNDMGWYRQAPGKERELVAAITSGGNTSYADSVKGRFTISRDNAKNTVYLQMNSLKPEDTAVYYCATEDFRTDTGMYYWGQGTQVTVSS	low polyreactivity
QVQLVESGGGLVQAGGSLRLSCASSGITFVVNAMVWYRQAPGKEREFVAAIDVRGGTTYYADSVKGRFTISRDNAKNSVYLQMNSLKPEDTAVYYCAASSTSGYDWGQGTQVTVSS	low polyreactivity
QVQLVESGGGLVQAGGSLRLSCASSGLIFPFYDMGWYRQAPGKERELVAAMTRSGDSTYYADSVKGRFTISRDNAKNTVYLQMNSLKPEDTAVSYCAAQPGTASYAGDGDSWGQGTQVTVSS	low polyreactivity
